This passage reports peak channel fluorescence results from US7074904.

For experiment [1], the target named is murine class II MHC molecule I-A^d on A20.1-11 cells (mouse) (UniProt P04228). Nature of the experiment: flow cytometry, FITC-conjugated isotype control antibody 1:100 on A20.1-11 cells (positive control).
The target of experiment [2] is full-length murine I-A^d/OVA 323-339 MHC class II fusion complex (pJRS165.1) expressed on NSO cells (mouse; chicken) (UniProt P04228). Nature of the experiment: flow cytometry, FITC-conjugated isotype control antibody 1:100 on clone NSO/IA^d/OVA.B5. On the technique in general: In flow cytometry, cells or beads pass a laser one at a time.
For experiment [3] the target is unchanged. Description: flow cytometry, FITC-conjugated isotype control antibody 1:100 on clone NSO/IA^d/OVA.A4.
Experiment [4] addresses I-A^d on NSO parental cells (untransfected negative control, H-2^d background) (mouse) (UniProt P04228). Nature of the experiment: flow cytometry, FITC-conjugated isotype control antibody 1:100 on untransfected NSO cells (negative control).
Experiment [5] has as its target full-length murine I-A^d/OVA 323-339 MHC class II fusion complex (pJRS165.1) expressed on NSO cells (mouse; chicken) (UniProt P04228). Description: flow cytometry, FITC-conjugated isotype control antibody 1:100 on clone NSO/IA^d/OVA.B2.
Experiment [6] has the same target. Description: flow cytometry, FITC-conjugated isotype control antibody 1:100 on clone NSO/IA^d/OVA.B4.

As to “FITC-conjugated anti-IA^k antibody (Pharmingen), isotype matched irrelevant antibody”, the peak channel fluorescence in experiment [1] came out at 5 channel; in experiment [2] it was 10 channel; in experiment [3], 34 channel; in experiment [4], 5 channel; in experiment [5], 14 channel; in experiment [6], 11 channel.
